± gives the uncertainty stated by the source.
Assay: self-splicing fitness, log relative to wild type (ln ratio); higher = more splicing; Tetrahymena group I intron in knt gene, E. coli kanamycin selection, DiMSum; sequences stand for … in CUCUCU…GGAGGGAAAAGUUAUCAGGCAUGCACCUGGUAGCUAGUCUUUAAACCAAUAGAUUGCAUCGGUUUAAAAGGCAAGACCGUCAAAUUGCGGGAAAGGGGUCAACAGCCGUUCAGUACCAAGUCUCAGGGGAAACUUUGAGAUGGCCUUGCAAAGGGUAUGGUAAUAAGCUGACGGACAUGGUCCUAACCACGCAGCCAAGUCCUAAGUCAACAGAUCUUCUGUUGAUAUGGAUGCAGUUCACAGACUAAAUGUCGGUCGGGGAAGAUGUAUUCUUCUCAUAAGAUAUAGUCGGACCUCUCCUUAAUGGGAGCUAGCGGAUGAAGUGAUGCAACACUGGAGCCGCUGGGAACUAAUUUGUAUGCGAAAGUAUAUUGAUUAGUUUUGGAGUACUCGUGGUCG
Outline: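 A randomised library covering all eight P1ex-region intron nucleotides was built with the intron in the knt kanamycin-resistance gene on pET-22b(+) and held in E. coli BL21(DE3). Cells were grown overnight at 37°C or 30°C on LB agar, with or without 25 μg/mL kanamycin, plus 100 μg/mL carbenicillin, 50 μM IPTG and 0.2% rhamnose, and pooled colonies were amplicon-sequenced on an Illumina HiSeq 2500. DiMSum fitness is the error-weighted combination of wild-type-normalised replicate fold changes, kanamycin versus none.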

Sequence | self-splicing fitness (ln) (30 °C) | self-splicing fitness (ln) (37 °C)
CCGUAGCAAUAUUACGCCUU | -3.08 ± 0.44 | -2.19 ± 0.31
CCUAAGCAAUAUUACGUGCG | -2.59 ± 0.13 | -1.03 ± 0.12
UUAUAGCAAUAUUACGAUGU | -2.57 ± 0.2 | -1.57 ± 0.23
UCACAGCAAUAUUACGGGGG | -2.39 ± 0.15 | -2.03 ± 0.16
ACUCAGCAAUAUUACGGUUC | -2.68 ± 0.14 | -2.33 ± 0.14
AAAAAGCAAUAUUACGUCUA | -0.394 ± 0.053 | 0.068 ± 0.07
ACCCAGCAAUAUUACGGGGG | -3.46 ± 0.17 | -2.43 ± 0.15
UGGAAGCAAUAUUACGGCCG | -0.385 ± 0.18 | -0.0898 ± 0.3
AAUCAGCAAUAUUACGCAUC | -0.287 ± 0.082 | 0.0734 ± 0.094
CAGUAGCAAUAUUACGUUAU | -2.82 ± 0.24 | -1.37 ± 0.2
UAACAGCAAUAUUACGGAAG | -2.59 ± 0.12 | -1.93 ± 0.12
GAUUAGCAAUAUUACGCGCA | -0.548 ± 0.12 | 0.433 ± 0.11
CGGUAGCAAUAUUACGCUUG | -2.07 ± 0.14 | -0.206 ± 0.14
UCAUAGCAAUAUUACGCCCG | -0.515 ± 0.21 | -0.292 ± 0.3
UAGUAGCAAUAUUACGCACU | -0.737 ± 0.11 | -0.331 ± 0.12
UCCCAGCAAUAUUACGGAAU | -3.64 ± 0.18 | -1.53 ± 0.12
CAGCAGCAAUAUUACGGCGA | -0.356 ± 0.11 | -0.114 ± 0.12
UCCGAGCAAUAUUACGGGCA | -1.79 ± 0.12 | -0.787 ± 0.1
UUCAAGCAAUAUUACGGCGA | 0.0413 ± 0.081 | 0.263 ± 0.11
UCGUAGCAAUAUUACGCGGG | -3.63 ± 0.37 | -0.254 ± 0.15
GGUUAGCAAUAUUACGCAAG | -2.45 ± 0.16 | -1.01 ± 0.12
ACCGAGCAAUAUUACGAGAA | – | -1.8 ± 0.29
GGAGAGCAAUAUUACGAAGU | -3.48 ± 0.37 | -1.33 ± 0.2
UGUGAGCAAUAUUACGGUCG | -0.638 ± 0.094 | -0.935 ± 0.12

Sequence | self-splicing fitness (ln) (30 °C) | self-splicing fitness (ln) (37 °C)
CGCUAGCAAUAUUACGCUAU | – | -2.46 ± 0.27
AUAAAGCAAUAUUACGUAAA | -2.39 ± 0.11 | -1.03 ± 0.12
UUCUAGCAAUAUUACGGACC | -1.51 ± 0.3 | –
UUGGAGCAAUAUUACGGAUA | -2.85 ± 0.21 | -2.04 ± 0.23
GCAUAGCAAUAUUACGCGUC | -3.3 ± 0.2 | -2.97 ± 0.4
AGUAAGCAAUAUUACGAAGG | -3.7 ± 0.2 | -2.07 ± 0.26
AUGUAGCAAUAUUACGUGGC | -4.11 ± 0.46 | -2.84 ± 0.25
GAGAAGCAAUAUUACGCUCG | -1.07 ± 0.14 | 0.735 ± 0.18
AGGAAGCAAUAUUACGCAUG | -3.2 ± 0.16 | -1.31 ± 0.12
AACCAGCAAUAUUACGACCA | -0.702 ± 0.082 | 0.122 ± 0.11
GGCAAGCAAUAUUACGUUCA | -0.364 ± 0.092 | 0.553 ± 0.11
CAGGAGCAAUAUUACGGUGG | -1.91 ± 0.14 | 0.146 ± 0.1
GCUAAGCAAUAUUACGCGAG | -2.6 ± 0.13 | -1.18 ± 0.14
GGUGAGCAAUAUUACGUAAC | -2.35 ± 0.43 | -1.22 ± 0.28
AAUAAGCAAUAUUACGCGGU | -3.83 ± 0.24 | -2.36 ± 0.17
ACCGAGCAAUAUUACGUAGC | -3.46 ± 0.16 | -1.61 ± 0.15
CGUUAGCAAUAUUACGUACU | -0.583 ± 0.078 | 0.0264 ± 0.097
CUGAAGCAAUAUUACGCAGU | -3.09 ± 0.19 | -3.23 ± 0.43
CGCAAGCAAUAUUACGGCUA | -1.15 ± 0.063 | -0.556 ± 0.076
AUAUAGCAAUAUUACGUGGU | -2.88 ± 0.19 | -1.54 ± 0.29
UCUAAGCAAUAUUACGUUUC | – | -2.3 ± 0.26
GUUCAGCAAUAUUACGUAAG | -0.609 ± 0.061 | 0.5 ± 0.083
UCCGAGCAAUAUUACGUAUC | -2.88 ± 0.25 | -2.07 ± 0.37
CCACAGCAAUAUUACGAGGG | -3.22 ± 0.12 | -3.11 ± 0.22
